The data set has as its target alpha-thrombin (UniProt P00734;P00734 328-363;364-622). Description: SPR imaging.

Take AGTCCGTGGTAGGGCAGGTTGGGGTGACTTTTTTTTTTTTTTTT (ssDNA, 3'-NH2, surface-attached to pGlu-MUAM on gold) [Da thrombin aptamer]: the binding result is recorded as “binds”.

The record behind these values is article PMC3093654.
